Results as given in PMC8427755.

Experiments:
[1] = target: FcγRIIa-H131 on transfected cells (human) (UniProt P12318); assay: flow cytometry on cells; competitive binding on cells transfected with FcγRIIa-H131, FcγRIIa-R131, FcγRIIb or FcγRI; Alexa-labelled rituximab (30 ug/mL) with the tested molecule, PBS pH 7.4; mean of 2 experiments
[2] = target: FcγRIIa-R131 on transfected HEK cells (human); assay: as above
[3] = target: FcγRIIb on transfected HEK cells (human) (UniProt P31994); assay: as above
[4] = target: FcγRI on transfected Jurkat cells (human) (UniProt P12314); assay: as above
[5] = target: His-tagged mFcγRIV (R&D Systems) (mouse); assay: SPR; Biacore T200, CM5 chip with anti-His capture; His-tagged hFcγRIIIa or mFcγRIV captured; 15 mM Tris-HCl, 150 mM NaCl, 0.005% Tween 20, pH 7.4, 25°C; single cycle (hFcγRIIIa) or multi cycle (mFcγRIV) kinetics; 1:1 Langmuir model, two state reaction model for LFBD192 on hFcγRIIIa
[6] = target: His-tagged hFcγRIIIa (Sinobiological) (human) (UniProt P08637); assay: as above
[7] = target: biotinylated mouse FcRn (Acrobiosystem) (mouse | not stated) (UniProt Q61559); assay: SPR; Biacore T200, sensor chip CAP; biotinylated human or mouse FcRn captured; samples injected in single cycle kinetic mode, 25°C; 20 mM sodium phosphate, 150 mM NaCl, 0.05% Tween 20, pH 6.0; 1:1 Langmuir model, steady state model for IVIg on hFcRn
[8] = target: biotinylated human FcRn (Acrobiosystem) (human) (UniProt P55899); assay: as above
[9] = target: human FcRn expressed at the surface of Jurkat cells (human) (UniProt P55899); assay: flow cytometry on cells; competitive binding on FcRn-transfected Jurkat cells; Alexa-labelled rituximab (30 ug/mL) with the tested molecule, PBS pH 6.0; mean of 2 experiments
[10] = target: FcγRI on transfected Jurkat cells (human) (UniProt P12314)
[11] = target: FcγRIIIa-F158 on transfected Jurkat cells (human) (UniProt P08637); assay: flow cytometry on cells; competitive binding on FcγRIIIa-F158-transfected Jurkat cells; FITC-conjugated anti-FcγRIIIa 3G8 (0.5 ug/mL) with 17-2168 nM of the tested molecule, 20 min, 4°C, PBS pH 7.4; mean of 2 experiments
[12] = target: recombinant human FcRn receptor (FcRn alpha-chain and beta2-microglobulin heterodimer), biotinylated (human) (UniProt P55899); assay: BLI; Octet RED96; biotinylated hFcRn fixed on streptavidin biosensors; Fc samples 200-3.125 nM; 0.1 M phosphate, 150 mM NaCl, 0.05% Tween 20, pH 6.0; 1/1 model; means of 3 experiments
[13] = target: Recombinant human FcγRIIIa V/CD16aV (human); assay: BLI; Octet RED96; His-tagged hFcγRIIIa V fixed on anti-penta-His (HIS-1K) biosensors; Fc samples 1,000-15.625 nM in kinetic buffer, pH 7.4; 1/1 model; means of 3 experiments

Sequence of UniProt P12314 (P12314 16-374): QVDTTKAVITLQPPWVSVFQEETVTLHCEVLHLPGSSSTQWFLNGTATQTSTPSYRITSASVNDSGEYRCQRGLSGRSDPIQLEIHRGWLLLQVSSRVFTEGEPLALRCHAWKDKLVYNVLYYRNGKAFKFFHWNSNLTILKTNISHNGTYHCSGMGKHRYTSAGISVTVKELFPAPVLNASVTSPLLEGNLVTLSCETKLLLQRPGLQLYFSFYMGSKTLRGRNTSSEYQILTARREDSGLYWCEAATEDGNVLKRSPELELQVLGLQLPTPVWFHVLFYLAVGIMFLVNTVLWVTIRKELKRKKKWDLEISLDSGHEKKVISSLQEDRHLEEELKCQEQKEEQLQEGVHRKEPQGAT
Sequence of UniProt P31994 (P31994 43-310): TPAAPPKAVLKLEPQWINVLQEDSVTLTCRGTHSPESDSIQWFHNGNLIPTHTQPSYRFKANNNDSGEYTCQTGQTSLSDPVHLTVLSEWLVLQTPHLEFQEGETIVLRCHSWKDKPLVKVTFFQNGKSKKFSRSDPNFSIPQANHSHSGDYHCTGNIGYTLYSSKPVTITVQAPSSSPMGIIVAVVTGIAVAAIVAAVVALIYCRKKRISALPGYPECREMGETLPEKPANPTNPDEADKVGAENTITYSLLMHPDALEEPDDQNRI
Sequence of UniProt P08637 (P08637 17-254): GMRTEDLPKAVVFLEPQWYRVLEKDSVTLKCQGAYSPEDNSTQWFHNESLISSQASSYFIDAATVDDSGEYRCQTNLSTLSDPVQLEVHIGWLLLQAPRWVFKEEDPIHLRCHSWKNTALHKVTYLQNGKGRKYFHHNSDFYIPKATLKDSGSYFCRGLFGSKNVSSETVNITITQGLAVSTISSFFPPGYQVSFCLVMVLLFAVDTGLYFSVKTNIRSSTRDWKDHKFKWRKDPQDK
Sequence of UniProt Q61559 (Q61559 22-297, chain 1 of 2): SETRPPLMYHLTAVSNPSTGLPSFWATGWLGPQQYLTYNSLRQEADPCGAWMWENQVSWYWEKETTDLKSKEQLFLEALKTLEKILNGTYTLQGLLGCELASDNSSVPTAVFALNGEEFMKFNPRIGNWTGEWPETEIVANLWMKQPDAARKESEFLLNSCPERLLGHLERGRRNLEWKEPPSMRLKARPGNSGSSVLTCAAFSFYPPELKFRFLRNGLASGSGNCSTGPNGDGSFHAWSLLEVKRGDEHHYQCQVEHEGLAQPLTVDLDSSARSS
Sequence of UniProt Q61559 (P01887 21-119, chain 2 of 2, further chain): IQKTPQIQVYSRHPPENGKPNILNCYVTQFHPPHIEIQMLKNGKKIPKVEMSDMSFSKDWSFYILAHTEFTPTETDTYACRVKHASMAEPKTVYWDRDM
Sequence of UniProt P12318 (P12318 34-317): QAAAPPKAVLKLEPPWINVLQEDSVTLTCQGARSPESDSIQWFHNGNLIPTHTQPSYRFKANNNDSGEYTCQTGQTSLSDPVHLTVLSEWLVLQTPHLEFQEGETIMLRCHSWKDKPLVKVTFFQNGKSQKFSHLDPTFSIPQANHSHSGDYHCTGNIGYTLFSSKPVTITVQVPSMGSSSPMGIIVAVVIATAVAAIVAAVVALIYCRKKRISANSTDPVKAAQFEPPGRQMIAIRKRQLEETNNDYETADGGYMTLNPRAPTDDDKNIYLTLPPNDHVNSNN

Row | Substance | IC50 [1] | IC50 [2] | IC50 [3] | IC50 [4] | Kd [5] | Kd [6] | Kd [7] | Kd [8] | IC50 [9] | IC50 of inhibition of IL-2 secretion by FcγRI-transfected Jurkat cells co-cultured with Raji cells coated with rituximab [10] | inhibitory concentration at 25% of IL-2 secretion by FcγRI-transfected Jurkat cells co-cultured with Raji cells coated with rituximab [10] | IC50 [11] | Kd [12] | Kd [13]
1 | intravenous immunoglobulin (IVIg) | 671 nM | 1310 nM | 761 nM | 880 nM | 554 nM | 40 nM | 17.1 nM | 469 nM | 1360 nM | > 1950 nM | 1110 nM | 1680 nM | – | –
2 | rFc-WT (non-mutated Fc fragment of human IgG1) (domain or fragment) | – | – | – | – | – | – | – | – | – | – | – | – | 36.5 nM | 504 nM
